Measurements from article PMC3177407.

Tests used:
[1] = target: Integrin α3β1 (UniProt P26006)
[2] = target: integrin alpha3beta1 (Homo sapiens) (UniProt P26006); conditions: cited from earlier work
Chain of integrin alpha3beta1 (Homo sapiens) (P26006 33-991, chain 1 of 2): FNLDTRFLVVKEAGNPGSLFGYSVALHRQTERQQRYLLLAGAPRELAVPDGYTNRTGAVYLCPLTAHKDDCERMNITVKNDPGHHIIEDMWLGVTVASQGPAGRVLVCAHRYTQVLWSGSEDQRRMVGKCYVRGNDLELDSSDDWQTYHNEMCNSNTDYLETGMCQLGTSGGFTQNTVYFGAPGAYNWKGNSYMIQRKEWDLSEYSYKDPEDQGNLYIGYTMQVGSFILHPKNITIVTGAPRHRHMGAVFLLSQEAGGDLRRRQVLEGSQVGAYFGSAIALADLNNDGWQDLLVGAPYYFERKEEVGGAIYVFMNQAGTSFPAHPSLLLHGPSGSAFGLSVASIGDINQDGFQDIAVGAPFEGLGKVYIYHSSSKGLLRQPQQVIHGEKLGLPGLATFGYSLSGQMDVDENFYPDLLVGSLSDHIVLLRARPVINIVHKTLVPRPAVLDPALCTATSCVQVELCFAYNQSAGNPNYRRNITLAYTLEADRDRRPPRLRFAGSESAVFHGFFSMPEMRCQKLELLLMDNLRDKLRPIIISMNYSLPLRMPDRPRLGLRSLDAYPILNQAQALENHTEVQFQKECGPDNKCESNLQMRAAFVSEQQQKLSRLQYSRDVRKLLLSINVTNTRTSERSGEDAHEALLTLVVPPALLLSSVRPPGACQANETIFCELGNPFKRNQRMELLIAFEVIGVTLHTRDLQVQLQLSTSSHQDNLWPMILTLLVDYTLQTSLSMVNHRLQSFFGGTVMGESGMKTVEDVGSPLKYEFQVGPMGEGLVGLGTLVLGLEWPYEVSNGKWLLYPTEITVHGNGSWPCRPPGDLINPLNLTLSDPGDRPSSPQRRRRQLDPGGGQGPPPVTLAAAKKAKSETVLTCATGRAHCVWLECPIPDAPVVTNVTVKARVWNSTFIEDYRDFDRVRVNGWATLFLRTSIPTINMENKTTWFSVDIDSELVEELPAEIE
Chain of integrin alpha3beta1 (Homo sapiens) (P05556 21-728, chain 2 of 2, further chain): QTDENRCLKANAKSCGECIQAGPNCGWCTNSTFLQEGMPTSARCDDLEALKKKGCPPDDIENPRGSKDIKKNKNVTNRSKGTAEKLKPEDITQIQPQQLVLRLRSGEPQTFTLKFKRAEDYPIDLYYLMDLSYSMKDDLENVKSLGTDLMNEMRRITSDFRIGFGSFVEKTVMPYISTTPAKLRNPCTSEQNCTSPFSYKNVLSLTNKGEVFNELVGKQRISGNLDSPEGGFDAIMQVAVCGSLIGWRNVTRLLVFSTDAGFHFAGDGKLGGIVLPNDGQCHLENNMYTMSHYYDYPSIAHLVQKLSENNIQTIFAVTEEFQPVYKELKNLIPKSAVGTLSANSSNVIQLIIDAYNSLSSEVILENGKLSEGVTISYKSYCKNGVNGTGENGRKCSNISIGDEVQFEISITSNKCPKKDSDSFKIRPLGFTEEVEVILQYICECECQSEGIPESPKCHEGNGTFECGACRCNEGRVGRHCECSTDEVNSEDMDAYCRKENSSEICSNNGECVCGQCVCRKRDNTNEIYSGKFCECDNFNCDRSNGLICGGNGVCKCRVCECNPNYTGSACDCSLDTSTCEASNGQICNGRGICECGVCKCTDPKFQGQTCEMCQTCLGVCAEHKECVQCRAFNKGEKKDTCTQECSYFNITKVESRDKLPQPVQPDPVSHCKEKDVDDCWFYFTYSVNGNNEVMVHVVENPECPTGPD

Chain of TIMP-2 (P16035 27-220): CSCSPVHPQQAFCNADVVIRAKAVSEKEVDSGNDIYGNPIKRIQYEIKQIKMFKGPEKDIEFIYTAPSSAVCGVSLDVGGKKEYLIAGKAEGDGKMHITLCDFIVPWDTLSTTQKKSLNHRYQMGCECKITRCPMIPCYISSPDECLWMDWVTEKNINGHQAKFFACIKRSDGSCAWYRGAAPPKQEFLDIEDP
Chain of Integrin α3β1 (P26006 33-1051, chain 1 of 2): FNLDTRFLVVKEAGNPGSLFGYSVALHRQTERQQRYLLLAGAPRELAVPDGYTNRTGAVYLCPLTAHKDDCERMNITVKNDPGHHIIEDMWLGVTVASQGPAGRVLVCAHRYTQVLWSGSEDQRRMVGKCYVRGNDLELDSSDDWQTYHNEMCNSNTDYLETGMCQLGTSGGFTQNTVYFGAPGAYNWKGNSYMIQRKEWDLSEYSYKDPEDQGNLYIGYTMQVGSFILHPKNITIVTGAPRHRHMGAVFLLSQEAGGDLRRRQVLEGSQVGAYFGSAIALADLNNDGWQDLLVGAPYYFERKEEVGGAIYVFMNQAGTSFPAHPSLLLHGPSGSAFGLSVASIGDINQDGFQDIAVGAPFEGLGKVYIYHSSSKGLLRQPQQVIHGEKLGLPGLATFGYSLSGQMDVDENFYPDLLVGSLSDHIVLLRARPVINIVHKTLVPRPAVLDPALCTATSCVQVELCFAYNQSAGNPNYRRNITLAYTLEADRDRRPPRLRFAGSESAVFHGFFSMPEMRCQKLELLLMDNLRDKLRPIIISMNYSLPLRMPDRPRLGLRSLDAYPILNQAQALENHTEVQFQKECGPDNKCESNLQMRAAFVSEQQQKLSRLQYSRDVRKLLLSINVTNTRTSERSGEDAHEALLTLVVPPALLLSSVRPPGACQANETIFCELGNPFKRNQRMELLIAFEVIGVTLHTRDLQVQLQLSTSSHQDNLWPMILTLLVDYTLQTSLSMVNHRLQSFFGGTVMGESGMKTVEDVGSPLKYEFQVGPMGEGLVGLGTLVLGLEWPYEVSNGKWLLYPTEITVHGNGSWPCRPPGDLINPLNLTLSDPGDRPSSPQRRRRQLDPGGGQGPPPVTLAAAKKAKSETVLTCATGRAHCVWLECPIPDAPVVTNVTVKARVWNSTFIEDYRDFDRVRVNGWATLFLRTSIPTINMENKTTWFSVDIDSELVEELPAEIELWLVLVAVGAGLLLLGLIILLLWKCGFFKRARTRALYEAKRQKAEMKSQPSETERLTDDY
Chain of Integrin α3β1 (P05556 21-728, chain 2 of 2, further chain): as the sequence (P05556 21-728, chain 2 of 2, further chain) above

Row | inhibition of VEGF-A-stimulated (10 ng/mL) growth of hMVECs, 100 nM protein [1] [%] | Substance | Kd [2] [nM]
1 | 75 | Ala+TIMP-2 (from UniProt P16035 27-220) (natural protein) | 
2 |  | TIMP-2 (from UniProt P16035) | 0.9
